Four molecules from publication PMC4500961, “H2O2 production rate in Lactobacillus johnsonii is modulated via the interplay of a heterodimeric flavin oxidoreductase with a soluble 28 Kd PAS domain containing protein” (Frontiers in Microbiology, 2015) can be followed below.

For one series, the target named is T1, FRedA/B (Lactobacillus johnsonii, UniProt A0A7D9N7Z8+A0A7D9N811).
T1 construct: gene T285_08435; full-length, both chains N-terminal His6, co-expressed and co-purified from E. coli BL21 (p15TV-fredA + pCDF-his-fredB); heterodimer 43 kDa
In words: isothermal titration calorimetry. It is filed as binding. The text has this: isothermal titration calorimetry on FRedA/B | FMN binding to the FRedA/B heterodimer is an exergonic reaction
(In general: ITC needs no label: the signal is the heat of the interaction.)

Series [1] concerns the target FRedB fused to the zinc finger DNA-binding domain of murine Zif268 (pACTR-fredB) (Lactobacillus johnsonii N6.2). In words: two-hybrid; bacterial two-hybrid in E. coli KDZifΔZ (ω subunit fusion and Zif268 fusion), 10 μM IPTG, β-galactosidase activity with CPRG in arbitrary units; static or aerobic growth.
In series [2] the target is His6-FRedB (putative FMN reductase FRedB of Lactobacillus johnsonii N6.2, from p15TV-fredB, individually purified) (Lactobacillus johnsonii N6.2).
Substrate in series [3]: Cc1cc2nc3c(=O)[nH]c(=O)nc-3n(C[C@H](O)[C@H](O)[C@H](O)COP(=O)(O)O)c2cc1C
In words: purified protein. It is filed as biochemical, Lactobacillus johnsonii. Particulars: fixed NADH, 100 mM MES pH 5.5, 37 °C.

Substrate in series [4]: Cc1cc2nc3c(=O)[nH]c(=O)nc-3n(C[C@H](O)[C@H](O)[C@H](O)COP(=O)(O)OP(=O)(O)OC[C@H]3O[C@@H](n4cnc5c(N)ncnc54)[C@H](O)[C@@H]3O)c2cc1C
In words: purified protein. It is filed as biochemical, Lactobacillus johnsonii. The note with it: fixed NADH, 100 mM MES pH 5.5, 37 °C.

Substrate in series [5]: NC(=O)C1=CN([C@@H]2O[C@H](COP(=O)(O)OP(=O)(O)OC[C@H]3O[C@@H](n4cnc5c(N)ncnc54)[C@H](O)[C@@H]3O)[C@@H](O)[C@H]2O)C=CC1
Nature of the series: purified protein. Particulars: fixed flavin electron acceptor, 100 mM MES pH 5.5, 37 °C. The format is biochemical, Lactobacillus johnsonii.

In general, Kd refers to the constant that tells how readily two partners part at equilibrium. Low values mean higher affinity, high ones lower affinity. In turn, `Cc1cc2nc3c(=O)[nH]c(=O)nc-3n(C[C@H](O)[C@H](O)[C@H](O)COP(=O)(O)O)c2cc1C` [FMN] came in with a Kd on FRedA/B of 1960 ± 130 nM.
For “FRedA fused to the ω subunit of E. coli RNA polymerase (pBR-fredA) (natural protein)”, the β-galactosidase activity in series [1] was 11700 AU.
In the case of “His6-FRedA (putative FMN reductase FRedA of Lactobacillus johnsonii N6.2, from p15TV-fredA) (natural protein)”, in series [2], the initial rate (V0) of NADH oxidase activity, FRedB preincubated with purified LjPAS (reduced by 50%) (μmol min^-1 mg^-1) worked out at 2.6; the initial rate (Vo) of NADH oxidase activity, both monomers combined and incubated with FMN before addition of NADH (μmol min^-1 mg^-1) is 31.3; the initial rate of NADH oxidase activity, FRedA preincubated with FMN before addition of FRedB (μmol min^-1 mg^-1) was determined as 0.27; the initial rate of NADH oxidase activity, FRedB preincubated with FMN before addition of FRedA (μmol min^-1 mg^-1) came to 6.48. In addition, the initial rate of NADH oxidase activity, purified LjPAS added after FRedA and FRedB were preincubated with FMN (not significantly slower) (μmol min^-1 mg^-1) in series [2] was 25.2.

B1: FRedA/B (Lactobacillus johnsonii N6.2) (protein)
chain 1: MKLLAIVGTNADFSYNRFLDQFMAKRYKDQAEIEVYEIADLPRFKKEAQPDSKVEEFKNKIREADGVIFATPEYDHGIPSALKSAMEWTGSHAQGNADVMKMKPAMVLGTSYGIQGASRAQEEMREILLSPDQSANVLPGNEVLIGHAADKFDKNTGDLLDQETIHAIDLAFNNFVKFVEQAQK
chain 2: MKLFAIVGSNADHSYNRDLLNFIKKHFTDRYDIELGEVKDLPMFKEGVKEPAAVASFAKKVADADAVLISTPEQQHSVPSSLKSALEWLSSAEHPFKDKPVVIVGTSVLPQGSARGQSHLKLVLSSPGFGAKVFNGDEFMMGTAPEQFDENGNLPAGTVKFLDHFFDEFDSFYAEVSK
notes: full-length, both chains N-terminal His6, co-expressed and co-purified from E. coli BL21 (p15TV-fredA + pCDF-his-fredB); heterodimer 43 kDa
A word on the Km: it is the concentration of substrate that gives half-maximal velocity. As usually defined, the Vmax is the top rate of the reaction or transport when substrate is in excess. As usually defined, the kcat is the number of substrate molecules converted per active site and unit of time at saturation. A word on the kcat/Km: it is the second-order rate constant that governs catalysis at low substrate concentration. For the molecule B1, in the series “purified protein [3]”, the Km was 20.36 ± 2.6 µM, the Vmax was determined as 204 µmol/min/mg, the kcat came to 146 s⁻¹ and the kcat/Km was 7.16e+06 M⁻¹ s⁻¹. Also, in the series “purified protein [4]”, the Km turned out to be 19.85 ± 2.5 µM, the maximal velocity (Vmax) was 67 µmol/min/mg, the catalytic constant (kcat) worked out at 48 s⁻¹ and the kcat/Km stood at 2.42e+06 M⁻¹ s⁻¹. Further, in “purified protein [5]”, the Km came out at 59.68 ± 5.8 µM, the Vmax is 185 µmol/min/mg, the kcat amounted to 132 s⁻¹ and the kcat/Km came out at 2.22e+06 M⁻¹ s⁻¹.
